This note sets out measurements from the RNAGym collection of RNA variant scans (doi:10.1093/molbev/msab373).

B1: Azoarcus group I ribozyme (parent)
chain: GUGCCUUGCGCCGGGAAACCACGCAAGGGAUGGUGUCAAAUUCGGCGAAACCUAAGCGCCCGCCCGGGCGUAUGGCAACGCCGAGCCAAGCUUCGGCGCCUGCGCCGAUGAAGGUGUAGAGACUAGACGGCACCCACCUAAGGCAAACGCUAUGGUGAAGGCAUAGUCCAGGGAGUGGCGAAAGUCACACAAACCGG

The variants in the data set derive from B1. The experiment in a line: reverse-splicing fitness (ratio to wild type); higher = more active; in vitro selection; Mg2+ level not given. A digest of the protocol:
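An in vitro group I ribozyme library with randomized positions was T7-transcribed and gel-purified. In triplicate, 10 pmol RNA in EPPS pH 7.5 was reacted with 50 pmoles of a 30-nt RNA substrate for 1 h at 37 °C across several added MgCl2 levels (1–48 mM), then stopped with EDTA. Products were reverse transcribed from a substrate-complementary primer, PCR-amplified and sequenced (HiSeq 4000). Fitness is a variant's read proportion after selection over that before, normalised to wild type.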
Regarding GUGCCUUGCGCCGGGAAACCACGCAAGGGAUGGUGUCAAAUUCGGCGAAACCUAAGCGCCCGCCCGGGCGUAUGGCAACGCCGAGCCAAGCUUCGGCGCCUGCGCCGAUGAAGGUGUAGCGACUAGACGGCACCCACCUAAGGCUAACGAUAUGGUGAAGGCAUAGUCUAGGGAGAGGCGAAAGUCACACAAACCGG [A120C A145U C150A C169U U176A], the reverse-splicing fitness came out at 0.0459.
As for GUGCCUUGCGCCGGGAAACCACGCAAGGGAUGGUGUCAAAUUCGGCGAAACCUAAGCGCCCGCCCGGGCGUAUGGCAACGCCGAGCCAAGCUUCGGCGCCUGCGCCGAUGAAGGUGUAGCGACUAGACGGCACCCACCUAAGGCUAACGAUAUGGUGAAGGCAUAGUCUAGGGAGCGGCGAAAGUCACACAAACCGG [A120C A145U C150A C169U U176C], the reverse-splicing fitness was determined as 0.0562.
To GUGCCUUGCGCCGGGAAACCACGCAAGGGAUGGUGUCAAAUUCGGCGAAACCUAAGCGCCCGCCCGGGCGUAUGGCAACGCCGAGCCAAGCUUCGGCGCCUGCGCCGAUGAAGGUGUAGCGACUAGACGGCACCCACCUAAGGCGAACGCUAUGGUGAAGGCAUAGUCCAGGGAGCGGCGAAAGUCACACAAACCGG [A120C A145G U176C] belongs 0.652.
To GUGCCUUGCGCCGGGAAACCACGCAAGGGAUGGUGUCAAAUUCGGCGAAACCUAAGCGCCCGCCCGGGCGUAUGGCAACGCCGAGCCAAGCUUCGGCGCCUGCGCCGAUGAAGGUGUAGCGACUAGACGGCACCCACCUAAGGCGAACGCUAUGGUGAAGGCAUAGUCCAGGGAGAGGCGAAAGUCACACAAACCGG [A120C A145G U176A] belongs 0.707; to GUGCCUUGCGCCGGGAAACCACGCAAGGGAUGGUGUCAAAUUCGGCGAAACCUAAGCGCCCGCCCGGGCGUAUGGCAACGCCGAGCCAAGCUUCGGCGCCUGCGCCGAUGAAGGUGUAGCGACUAGACGGCACCCACCUAAGGCGAACGCUAUGGUGAAGGCAUAGUCCAGGGAGGGGCGAAAGUCACACAAACCGG [A120C A145G U176G], 0.212; to GUGCCUUGCGCCGGGAAACCACGCAAGGGAUGGUGUCAAAUUCGGCGAAACCUAAGCGCCCGCCCGGGCGUAUGGCAACGCCGAGCCAAGCUUCGGCGCCUGCGCCGAUGAAGGUGUAGCGACUAGACGGCACCCACCUAAGGCGAACGCUAUGGUGAAGGCAUAGUCGAGGGAGAGGCGAAAGUCACACAAACCGG [A120C A145G C169G U176A], 0.0155.
The same measure for GUGCCUUGCGCCGGGAAACCACGCAAGGGAUGGUGUCAAAUUCGGCGAAACCUAAGCGCCCGCCCGGGCGUAUGGCAACGCCGAGCCAAGCUUCGGCGCCUGCGCCGAUGAAGGUGUAGCGACUAGACGGCACCCACCUAAGGCGAACGCUAUGGUGAAGGCAUAGUCGAGGGAGCGGCGAAAGUCACACAAACCGG [A120C A145G C169G U176C]: 0.022; for GUGCCUUGCGCCGGGAAACCACGCAAGGGAUGGUGUCAAAUUCGGCGAAACCUAAGCGCCCGCCCGGGCGUAUGGCAACGCCGAGCCAAGCUUCGGCGCCUGCGCCGAUGAAGGUGUAGCGACUAGACGGCACCCACCUAAGGCGAACGCUAUGGUGAAGGCAUAGUCGAGGGAGGGGCGAAAGUCACACAAACCGG [A120C A145G C169G U176G]: 0.00382; for GUGCCUUGCGCCGGGAAACCACGCAAGGGAUGGUGUCAAAUUCGGCGAAACCUAAGCGCCCGCCCGGGCGUAUGGCAACGCCGAGCCAAGCUUCGGCGCCUGCGCCGAUGAAGGUGUAGCGACUAGACGGCACCCACCUAAGGCGAACGCUAUGGUGAAGGCAUAGUCAAGGGAGUGGCGAAAGUCACACAAACCGG [A120C A145G C169A]: 0.0366.
Turning to GUGCCUUGCGCCGGGAAACCACGCAAGGGAUGGUGUCAAAUUCGGCGAAACCUAAGCGCCCGCCCGGGCGUAUGGCAACGCCGAGCCAAGCUUCGGCGCCUGCGCCGAUGAAGGUGUAGCGACUAGACGGCACCCACCUAAGGCGAACGCUAUGGUGAAGGCAUAGUCGAGGGAGUGGCGAAAGUCACACAAACCGG [A120C A145G C169G], the reverse-splicing fitness is 0.0256.
The same measure for GUGCCUUGCGCCGGGAAACCACGCAAGGGAUGGUGUCAAAUUCGGCGAAACCUAAGCGCCCGCCCGGGCGUAUGGCAACGCCGAGCCAAGCUUCGGCGCCUGCGCCGAUGAAGGUGUAGCGACUAGACGGCACCCACCUAAGGCGAACGCUAUGGUGAAGGCAUAGUCUAGGGAGUGGCGAAAGUCACACAAACCGG [A120C A145G C169U]: 0.47; for GUGCCUUGCGCCGGGAAACCACGCAAGGGAUGGUGUCAAAUUCGGCGAAACCUAAGCGCCCGCCCGGGCGUAUGGCAACGCCGAGCCAAGCUUCGGCGCCUGCGCCGAUGAAGGUGUAGCGACUAGACGGCACCCACCUAAGGCUAACGAUAUGGUGAAGGCAUAGUCUAGGGAGUGGCGAAAGUCACACAAACCGG [A120C A145U C150A C169U]: 0.0832; for GUGCCUUGCGCCGGGAAACCACGCAAGGGAUGGUGUCAAAUUCGGCGAAACCUAAGCGCCCGCCCGGGCGUAUGGCAACGCCGAGCCAAGCUUCGGCGCCUGCGCCGAUGAAGGUGUAGCGACUAGACGGCACCCACCUAAGGCUAACGAUAUGGUGAAGGCAUAGUCAAGGGAGUGGCGAAAGUCACACAAACCGG [A120C A145U C150A C169A]: 0.00801.
In the case of GUGCCUUGCGCCGGGAAACCACGCAAGGGAUGGUGUCAAAUUCGGCGAAACCUAAGCGCCCGCCCGGGCGUAUGGCAACGCCGAGCCAAGCUUCGGCGCCUGCGCCGAUGAAGGUGUAGCGACUAGACGGCACCCACCUAAGGCUAACGAUAUGGUGAAGGCAUAGUCGAGGGAGUGGCGAAAGUCACACAAACCGG [A120C A145U C150A C169G], the reverse-splicing fitness stood at 0.00666.
The same measure for GUGCCUUGCGCCGGGAAACCACGCAAGGGAUGGUGUCAAAUUCGGCGAAACCUAAGCGCCCGCCCGGGCGUAUGGCAACGCCGAGCCAAGCUUCGGCGCCUGCGCCGAUGAAGGUGUAGCGACUAGACGGCACCCACCUAAGGCGAACGUUAUGGUGAAGGCAUAGUCCAGGGAGGGGCGAAAGUCACACAAACCGG [A120C A145G C150U U176G]: 0.179.
